Measured values published in patent publication US20120184020A1, “ENGINEERED MICROORGANISMS WITH ENHANCED FERMENTATION ACTIVITY” (Verdezyne, Inc., priority 2009, published 2012).
Where “and” joins values, the source holds several entries; their conditions need not be identical. Equal values may be shown once.

Assays:
[1] = Xylose isomerase activity/kinetic assay on soluble whole cell extract (sorbitol dehydrogenase coupled, NADH, A340); type: biochemical; conditions: xylose isomerase expressed in S. cerevisiae, total soluble crude extract; xylose concentrations between 40 and 500 nM (so in the source); Michaelis Mentin plots
Method: […] Louis, Mo.), and about 2 U sorbitol dehydrogenase (Roche) at about 30° C. […] A Beckman DU-800 was utilized with an Enzyme Mechanism software package (Beckman Coulter, Inc.), and the change in the A340 was monitored for 2-3 minutes.
[…] Louis, Mo.), and 2 U Sorbitol Dehydrogenase (SDH) (Roche, Indianapolis, Ind.) at about 30° C. […] A Beckman DU-800 spectrophotometer was utilized with an Enzyme Mechanism software package (Beckman Coulter, Inc, Brea, Calif.), and the change in the A340 was monitored for 2-3 minutes.
[…] Louis, Mo.), and 2 U sorbitol dehydrogenase (SDH) (Roche, Indianapolis, Ind.) at about 30° C. […] A Beckman DU-800 spectrophotometer was utilized with an Enzyme Mechanism software package (Beckman Coulter, Inc, Brea, Calif.), and the change in the A340 was monitored for 2-3 minutes.
Approximately 20 μg of soluble whole cell extract from each transformed cell line was prepared using Y-PER plus reagent as described above was incubated in a solution containing about 100 mM Tris, pH 7.5, 10 mM MgCl ? 2, 0.15 mM NADH (Sigma, St. Louis, Mo.), and 2 U Sorbitol Dehydrogenase (SDH) (Roche, Indianapolis, Ind.) at about 30° C. […] A Beckman DU-800 spectrophotometer was utilized with an Enzyme Mechanism software package (Beckman Coulter, Inc, Brea, Calif.), and the change in the A340 was monitored for 2-3 minutes.

[2] = tested on: engineered yeast (S. cerevisiae); experiment: Heterologous xylose isomerase expression in yeast (active yes/no); type: cell-based; conditions: xylose isomerase of donor organism expressed in engineered yeast (S. cerevisiae)
[3] = In vivo evaluation of xylose isomerase constructs in C5 strain: xylose fermentation, aerobic then anaerobic; type: cell-based, Saccharomyces cerevisiae; conditions: harvest at 372 hours
From the text: The engineered strain was designed to include the following genetic modifications: the native Pho13 gene (alkaline phosphatase specific for p-nitrophenyl phosphate) was disrupted by inserting a construct containing the native TLK1 gene (Transketolase-1); the native aldose reductase gene (Gre3) was disrupted by inserting a construct containing the native high-affinity glucose transporter-7 gene (HXT7); the native glucose-repressible alcohol dehydrogenase II gene (adh2) was disrupted by inserting a construct containing the native xylulokinase gene (XYLK); and the native orotidine-5′ phosphate decarboxylase gene (ura3) was disrupted by inserting a construct containing the native transaldolase 1 gene […]. The resulting strain had the following genotype: pho13::TKL1, gre3::HXT7, adh2::XYLK, ura3::TAL1.
The C5 strain was transformed using standard protocols with either p426GPD (as a control) or the chimeric variants XI-R, XI-Rp5, XI-Rp10, or XI-Rp15. The transformed cells were grown on SC-glucose minus uracil initially and then passaged onto SC-xylose minus uracil. Cultures of each of the above constructs were made in SC-xylose minus uracil—and grown for one week. The cultures were grown aerobically at 30° C. with 250 rpm agitation, 1 vvm sparge of process air, 21% O2. The pH was controlled at about 5.0 with 1N NaOH. […] At 24 hours elapsed fermentation time the fermentation was switched to anaerobic conditions. […] Oxygen was purged with 100% N2 sparge at 1 vvm until percent O2 was below 1%. Aeration was then set at 0.25 vvm 100% N2.
The final sample also measured biomass by dry cell weight.

[4] = Industrial yeast strain BF903 evaluation: aerobic growth and xylose consumption in YP-xylose; type: cell-based, Saccharomyces cerevisiae; conditions: commercial yeast strain BF903, YP-xylose with G418, aerobic, 30° C., 7 days
Method: A commercially available industrial diploid strain of Saccharomyces cerevisiae (strain BF903; “Stillspirits” triple distilled yeast, Brewcraft, Albany, New Zealand; available at Hydrobrew, Oceanside, Calif.) was obtained and was made competent for transformation using known yeast cell transformation procedures. […] Transformed yeast containing each construct were grown overnight aerobically in a 15 ml culture tube on YPD media containing 2% glucose. After about 24 hours, about 25 ml of YP media containing 2% glucose and 100 μg/ml G418 was seeded with the cells at an initial OD600 of 0.5 in a 250 ml Erlenmeyer flask and grown aerobically at 30° C. The cultures were then passaged once every 7 days into fresh media, also at an initial OD600 of 0.5.
Measurements were taken of the cell optical density (OD600) to assess cell density and plated onto YPD with 100 μg/ml G418 to ensure that the plasmid was stable. […] The strains were then grown overnight in YPD (with 100 μg/ml G418) and used to inoculate about 50 ml YP-xylose (with 100 μg/ml G418) into disposable 250 ml Erlenmeyer flasks with vented caps at an initial OD600 of about 1. The cultures were allowed to grow aerobically at 30° C. at 200 rpm for 7 days.

[5] = Industrial yeast strain: serum bottle (anaerobic) growth and ethanol production on xylose; type: cell-based, Saccharomyces cerevisiae; conditions: sealed serum bottles, versus vector only control
Method: The serum bottles were sealed with a butyl rubber stopper to prevent air exchange. As a result, the cultures became anaerobic once the available oxygen in the serum bottle was utilized. In general, anaerobiosis (e.g., the onset of anaerobic conditions) occurred a few hours after the culture was inoculated. Xylose utilization, ethanol production and cell growth were measured every twenty four hours.

[6] = Anti-His western blot of EDD and EDA variants expressed in S. cerevisiae (soluble/insoluble fractions); design: species or system Saccharomyces cerevisiae; conditions: C-terminal HIS tag; total crude extract and solubilized extract
Method: Transformation of the p426GPD plasmids containing an edd or an eda variant gene into yeast strain BY4742 was accomplished using the Zymo Research frozen-EZ yeast transformation II kit according to the manufacturer's protocol. The transformed BY4742 cells were selected by growth on a synthetic dextrose medium (SD) (0.67% yeast nitrogen base-2% dextrose) containing complete amino acids minus uracil (Krackeler Scientific Inc). Plates were incubated at about 30° C. for about 48 hours. Transformant colonies for each edd and eda variant were inoculated onto 5 ml of SD minus uracil medium and cells were grown at about 30° C. and shaken at about 250 rpm for about 24 hours. Cells were harvested by centrifugation at 1000×g for about 5 minutes, after which protein crude extract was prepared with Y-PER Plus (Thermo Scientific) according to the manufacturer's instructions. Whole cell extract protein concentrations were determined using the Coomassie Plus Protein Assay (Thermo Scientific) according to the manufacturer's directions. For each edd and eda variant His-tagged construct, about 10 μg of soluble and insoluble fractions were loaded on 4-12% NuPAGE Novex Bis-Tris protein gels (Invitrogen) and proteins were analyzed by western using anti-(His)6 (SEQ ID NO: 138) mouse monoclonal antibody (Abcam) and HRP-conjugated secondary antibody (Abcam). […]

[7] = EDA activity assay: S. cerevisiae EDA extracts with saturating E. coli EDD extract (LDH coupled, NADH); type: biochemical
Method: EDA genes isolated from a variety of sources were expressed in yeast and evaluated independently of EDA activity, to identify EDA activities suitable of inclusion in an engineered yeast strain. […] The activity of integrated EDAs in Thermosacc-Gold haploids, were also evaluated in this manner.
EDD extractions (adapted from Chemyan et al, Protein Science 16:2368-2377, 2007): • 1) Pellet cells in 50 ml conical tubes, 4° C., 3,000 rpm, 10 mins, discard supernatant. • 2) Resuspend in 2 ml degassed PDGH buffer (20 mM MES pH 6.5, 30 mM NaCl, 5 mM MnCl2, 0.5 mM FeCl2, 10 mM 2-mercaptoethanol, 10 mM cysteine, sparged with nitrogen gas). Move to hungate tube. • 3) Add 0.1% Triton X-100, 10 ng/ml DNase, 10 μg/ml PMSF, 10 μg/ml TAME (Na-(p-toluene sulfonyl)-L-arginine methyl ester), 100 μg/ml lysozyme. • 4) Sparge hungate tube with nitrogen gas, cap and seal. Incubate 2 hours at 37° C., swirl occasionally. • 5) Clarify by centrifugation in 2-ml tube, 4° C., 10 mins, 14,000 rpm. Keep supernatant. • 6) Treat with 150 mM pyruvate and 10 mM sodium cyanoborohydride (work in hood) to inactivate aldolase activity. Incubate 30 mins at room temperature. • 7) During incubation, pre-equilibrate PD-10 column from GE • a. Remove top cap, pour off storage buffer. • b. Cut off bottom tip, fit in 50 ml conical with adapter. • c. Pour 5 ml of 20 mM MES buffer, pH 6.5 (total of 5 times). Discard flow-through. • 8) Run sample through column, then add MES buffer to a total of 2.5 ml volume added. Discard flow-through. • 9) Run 3.5 ml 20 mM MES pH 6.5 buffer to elute protein. Discard column in appropriate waste receptacle. • 10) Perform Bradford assay (1:10 or 1:20 dilution).
• 1) Spin down in 50 ml conicals, 4° C., 3,400 rpm, 5 mins. […]
Each reaction contains 50 mM Tris-HCl, pH 7, 10 mM MgCl2, 0.15 mM NADH, 15 μg LDH, saturating amounts of EDD determined empirically (usually −100 μg), 1-50 μg EDA (depending on level of activity), and 1 mM 6-phosphogluconate. Reactions are started by the addition of 6-phosphogluconate and monitored for 5 mins at 30° C.

| Molecule | Specific Activity [1] | Active? (yes/no) [2] | Glucose [3] | Ethanol ([3]; listed as XI-R) | Xylose ([3]; listed as XI-R) | xylose consumption (FIG. 11) [4] | cell density (FIG. 12) ([5]; YP plus xylose) | ethanol production (FIG. 12) ([5]; xylose as a carbon source) | expression and solubility in S. cerevisiae (western, FIGS. 13A and 13B) [6] | EDA activity relative to EDA from P. aeruginosa ([7]; E. coli EDA slope outside the linear range, underestimated) | EDA activity compared (in words) ([7]; EDAs expressed in S. cerevisiae, saturating E. coli EDD extract) |
| --- | --- | --- | --- | --- | --- | --- | --- | --- | --- | --- | --- |
| Ruminococcus xylose isomerase: native xylose isomerase from Ruminococcus flavefaciens strain 17, SEQ ID NO: 31 (protein, listed as Ruminococcus flavefaciens) MEFFSNIGKIQYQGPKSTDPLSFKYYNPEEVINGKTMREHLKFALSWWHTMGGDGTDMFGCGTTDKTWGQSDPAARAKAKVDAAFEIMDKLSIDYYCFHDRDLSPEYGSLKATNDQLDIVTDYIKEKQGDKFKCLWGTAKCFDHPRFMHGAGTSPSADVFAFSAAQIKKALESTVKLGGNGYVFWGGREGYETLLNTNMGLELDNMARLMKMAVEYGRSIGFKGDFYIEPKPKEPTKHQYDFDTATVLGFLRKYGLDKDFKMNIEANHATLAQHTFQHELRVARDNGVFGSIDANQGDVLLGWDTDQFPTNIYDTTMCMYEVIKAGGFTNGGLNFDAKARRGSFTPEDIFYSYIAGMDAFALGFRAALKLIEDGRIDKFVADRYASWNTGIGADIIAGKADFASLEKYALEKGEVTASLSSGRQEMLESIVNNVLFSL | 0.9605 µmol/min/mg | Yes | 0 g/L | 15.65 g/L and 15.5 g/L | 3.14 g/L and 3.85 g/L | more efficient at consuming xylose than the strain carrying the vector control only | higher cell density | more ethanol |  |  |  |
| PAO1 EDD protein: phosphogluconate dehydratase (edd) of Pseudomonas aeruginosa PAO1, SEQ ID NO: 70 (protein, listed as Pseudomonas aeruginosa) MHPRVLEVTRRIQARSAATRQRYLEMVRAAASKGPHRGTLPCGNLAHGVAACGESDKQTLRLMNQANVAIVSAYNDMLSAHQPFERFPGLIKQALHEIGSVGQFAGGVPAMCDGVTQGEPGMELSLASRDVIAMSTAIALSHNMFDAALCLGVCDKIVPGLLIGSLRFGHLPTVFVPAGPMPTGISNKEKAAVRQLFAEGKATREELLASEMASYHAPGTCTFYGTANTNQLLVEVMGLHLPGASFVNPNTPLRDELTREAARQASRLTPENGNYVPMAEIVDEKAIVNSVVALLATGGSTNHTLHLLAIAQAAGIQLTWQDMSELSHVVPTLARIYPNGQADINHFQAAGGMSFLIRQLLDGGLLHEDVQTVAGPGLRRYTREPFLEDGRLVWREGPERSLDEAILRPLDKPFSAEGGLRLMEGNLGRGVMKVSAVAPEHQVVEAPVRIFHDQASLAAAFKAGELERDLVAVVRFQGPRANGMPELHKLTPFLGVLQDRGFKVALVTDGRMSGASGKVPAAIHVSPEAIAGGPLARLRDGDRVRVDGVNGELRVLVDDAEWQARSLEPAPQDGNLGCGRELFAFMRNAMSSAEEGACSFTESLNGWR |  |  |  |  |  |  |  |  | expressed and soluble |  |  |
| E. coli EDA protein: 2-keto-3-deoxygluconate-6-phosphate aldolase (eda) isolated from E. coli genomic DNA (protein, UniProt P0A955 1-213, looked up) KHG/KDPG aldolase: MKNWKTSAESILTTGPVVPVIVVKKLEHAVPMAKALVAGGVRVLEVTLRTECAVDAIRAIAKEVPEAIVGAGTVLNPQQLAEVTEAGAQFAISPGLTEPLLKAATEGTIPLIPGISTVSELMLGMDYGLKEFKFFPAEANGGVKALQAIAGPFSQVRFCPTGGISPANYRDYLALKSVLCIGGSWLVPADALEAGDYDRITKLAREAVEGAKL |  |  |  |  |  |  |  |  | expressed and soluble | approximately 16 fold | most active |
